{
  "source": "paper PMC10581170",
  "data": [
    {"target": "T1, CzcR (His6-CzcR) (Pseudomonas aeruginosa PAO1?) (UniProt Q9RLJ1)", "T1 sequence": "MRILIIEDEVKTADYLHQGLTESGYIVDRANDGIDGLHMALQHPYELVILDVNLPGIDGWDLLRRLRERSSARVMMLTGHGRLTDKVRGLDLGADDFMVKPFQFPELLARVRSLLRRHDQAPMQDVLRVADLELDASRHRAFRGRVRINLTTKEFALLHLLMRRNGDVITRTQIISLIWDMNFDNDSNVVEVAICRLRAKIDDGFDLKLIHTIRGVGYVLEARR", "assay": "EMSA", "values": [
      {"sequence": "GAATCCACCTGAAACCCACGCCCAGCAAGGCCTATAGCACTAATCACAGACGCCCTTGACCTCAACTTAACTTGAGGTTTTATAGTCCCCGCTGCGGTCATACCGCCCCGTTTCCCCAGGACCACGAACCGCCCCCACGGCCGCTTCGCGGCGCCGGATGGCGACCAGCACAAGGAACGACCCATGCAGCGCTTC (double strand) [mexGHI-opmD promoter probe (PmexG)]", "binding": "binds"},
      {"sequence": "GCAACCGTTCGGAACATTCTTCCCGTCGGGGGTAGGCGAGCGACTTGCCCTGTGGAATAATACTGTCTACTTATACAGTTGTTCGTGGCCGTCCGGCCGCCCTGACTTCGCGAGGACTTCAATGGA (double strand) [recA promoter fragment (PrecA)]", "binding": "no binding"},
      {"sequence": "GATAACCGGCCATCGAGCTAAAACGTTTCAGGTGTTTTCACGCGAGGCTTTCGGACGTTTACAAACACCTATGAATGTAAGTATTTTGCCTGCCTTCTTCGAGCCGGTGCAGCGCCTTCACGCTGCATCGGCCGCTTTCGCTCATGAGGACAACGCTATGCAACGAAC (double strand) [mexAB-oprM promoter probe (PmexA)]", "binding": "binds"}
    ]}
  ]
}
